Experimental data taken from the RNAGym collection of RNA variant scans (doi:10.7554/elife.80360).

B1: Twister Ribozyme (parent)
chain: AACACUGCCAAUGCCGGUCCCAAGCCCGGAUAAAAGUGGAGGGGGCGG

Variants of: B1
Assay: self-cleavage, relative activity (ratio to wild type); higher = more cleavage; co-transcriptional

In order of rising self-cleavage:
1. C21G G43A  0.0243
2. C21U G36U  0.0467
3. C21G G39U  0.0469
4. G24C G43C  0.0497
5. G24C A34U  0.0578
6. A23U G24U  0.0593
7. C21U A22G  0.0633
8. C21U A32G  0.0636
9. C21U A23U  0.0638
10. C21U G38A  0.0657
11. G24C G39U  0.0664
12. A23C U37G  0.0666
13. C21G G24A  0.0681
14. G24A U37A  0.0684
15. A22U G39U  0.0706
16. A23C A35G  0.0714
17. C21U C27G  0.0722
18. A22U G36U  0.074
19. C21U G38C  0.0755
20. A23U C27A  0.0759
21. G24C A33U  0.0768
22. G24A U31C  0.0777
23. G24A G36U  0.0791
24. C21U C26A  0.0796
25. C21U A23G  0.0801
26. C21U U37A  0.0811
27. A23C G29C  0.0814
28. C21U A23C  0.0826
29. C21G U37G  0.083
30. A23U C27G  0.0875
31. A23C U37A  0.088
32. G24C G39A  0.0888
33. C21G G42A  0.0891
34. A23C G36A  0.09
35. C21U A22C  0.0923
36. A22G G38C  0.0945
37. A23C G36U  0.0946
38. G24A G36A  0.0947
39. C21G G43U  0.0954
40. G24C A34C  0.0955
41. G24C G28U  0.0961
42. G24C G43U  0.0968
43. A22G G43A  0.0968
44. A22G C27A  0.0974
45. C21G G24U  0.0976
46. G24C G28A  0.0981
47. A23U G41C  0.0988
48. A23G C26U  0.101
49. G24A G43A  0.102
50. A22U C26U  0.103
51. G24C G29C  0.104
52. G24A A40C  0.105
53. G24A U31A  0.106
54. C21U G43U  0.106
55. A23G C26G  0.107
56. G24A G43C  0.107
57. C21U C46A  0.107
58. G24C G41A  0.109
59. C21U G47U  0.109
60. C21G G24C  0.109
61. C21G G38A  0.11
62. A22U C26A  0.11
63. A22G A40C  0.11
64. A22G A30C  0.111
65. A23C G41C  0.112
66. C21G C46G  0.113
67. G24C C25U  0.114
68. C21G C46A  0.115
69. C21U U31G  0.115
70. A22U G39C  0.115
71. A23C C25U  0.116
72. A23C G43A  0.117
73. C21U G45U  0.118
74. A23U G39U  0.119
75. A23U G36C  0.12
76. A22C C25A  0.12
77. G24C C27A  0.121
78. A23C G29U  0.124
79. A23U G41A  0.126
80. A22U G42A  0.126
81. A22C A40G  0.128
82. C21G G42C  0.13
83. G24C C27G  0.134
84. G24C G28C  0.135
85. A23C A34G  0.135
86. C21U C46G  0.135
87. C21U G41U  0.136
88. A23U G41U  0.137
89. A23G G41C  0.138
90. A22G A40U  0.138
91. A23G C27U  0.14
92. A23G U37C  0.142
93. A23G G39A  0.143
94. G24C A33C  0.146
95. C21G G48A  0.146
96. A23U G43C  0.146
97. A23G C27A  0.147
98. A22C A23C  0.148
99. A23G A34U  0.15
100. C21G G41A  0.159
101. A23C G28U  0.161
102. A22G G29U  0.183
103. A23G G38A  0.194
104. A23C G44U  0.195
105. A22C G36U  0.204
106. A23C G44C  0.212
107. A23U G47C  0.213
108. A22C G42A  0.215
109. A22C C25G  0.222
110. A22G G44C  0.225
111. A23C A35C  0.227
112. A23G G38U  0.236
113. A22C G42C  0.237
114. A22G A33U  0.237
115. A23C A32U  0.241
116. A22G G44U  0.243
117. A23U G47A  0.245
118. A22G G48A  0.246
119. A22G A33G  0.255
120. A22U U37A  0.256
121. A22C G43U  0.273
122. A22G A32U  0.278
123. A23U A33U  0.307
124. A23G G29A  0.307
125. A22G G44A  0.315
126. A22G G48C  0.318
127. A22C A23G  0.341
128. A22G A32C  0.35
129. A23G A32C  0.366
130. A22G  0.368
131. A23C A30G  0.385
132. A23U G48A  0.389
133. A23G A32G  0.402
134. A23G C46G  0.405
135. A23G G29U  0.425
136. C21U G41C  0.434
137. A23U G48U  0.439
138. A23U A32C  0.464
139. A23C G44A  0.478
140. A23U G48C  0.48
141. A23U G44U  0.484
142. A23U A32U  0.494
143. A23U A30U  0.501
144. A23U A30G  0.506
145. A23G C46U  0.579
146. A22G A40G  0.588
147. C21U G41A  0.641
148. A22U G29U  0.66
149. A23U G44A  0.679
150. A22U A33U  0.698
151. A22U A33C  0.737
152. A22U G38C  0.779
153. A22C G38U  0.782
154. A22C G28A  0.862
155. A22U  0.879
156. A22C G38A  0.894
157. A22C C27U  0.901
158. A22C G47A  0.909
159. A22C G47U  0.917
160. A22C G28U  0.937
161. A22C C25U  0.948
162. A22C G28C  0.955
163. A22C A35U  0.962
164. A22C G38C  0.976
165. A22C U31G  0.987
166. A22C A30U  1
167. A22C  1.02
